Laboratory results: patent US20240425589A1, “CYTOTOXICITY-INDUCING THERAPEUTIC AGENT FOR USE IN TREATMENT OF CANCER” (CHUGAI SEIYAKU KABUSHIKI KAISHA, priority 2021, published 2024)

Key:
recombinant human CD137 = molecular target: T1, recombinant human CD137 (Homo sapiens, UniProt Q07011); assay: Biacore T200 SPR affinity of Dual-Fab antibodies to human CD137; type: binding; details: 37 degrees C, pH 7.4
T1 construct: made in house; host or cells: FreeStyle293F
Excerpt: Human CD137 extracellular domain (ECD) (SEQ ID NO: 179) with hexahistidine (His-tag) and biotin acceptor peptide (BAP) on its C-terminus was expressed transiently using FreeStyle293F cell line (Thermo Fisher). Conditioned media expressing human CD137 ECD was applied to a HisTrap HP column (GE healthcare) and eluted with buffer containing imidazole (Nacalai). Fractions containing human CD137 ECD were collected and subsequently subjected to a Superdex 200 gel filtration column (GE healthcare) equilibrated with 1×D-PBS. Fractions containing human CD137 ECD were then pooled and stored at −80 degrees C.
(§1) Binding affinity of Dual-Fab antibodies (Dual-Ig) to human CD3 were assessed at 25 degrees C. using Biacore T200 instrument (GE Healthcare). Anti-human Fc (GE Healthcare) was immobilized onto all flow cells of a CM4 sensor chip using amine coupling kit (GE Healthcare). Antibodies were captured onto the anti-Fc sensor surfaces, then recombinant human CD3 or CD137 was injected over the flow cell. All antibodies and analytes were prepared in ACES pH 7.4 containing 20 mM ACES, 150 mM NaCl, 0.05% Tween 20, and 0.005% NaN3. Sensor surface was regenerated each cycle with 3M MgCl2. Binding affinity were determined by processing and fitting the data to 1:1 binding model using Biacore T200 Evaluation software, version 2.0 (GE Healthcare). CD137 binding affinity assay was conducted in same condition except assay temperature was set at 37 degrees C.

[1] = molecular target: T2, recombinant human CD3 (human CD3eg linker) (Homo sapiens, UniProt P07766+P09693); assay: Biacore T200 SPR affinity of Dual-Fab antibodies to human CD3; type: binding; details: 25 degrees C, pH 7.4
T2 construct: made in house; host or cells: FreeStyle293F
Excerpt: The gamma and epsilon subunits of the human CD3 complex (human CD3eg linker) were linked by a 29-mer linker and a Flag-tag was fused to the C-terminal end of the gamma subunit (SEQ ID NO: 169). This construct was expressed transiently using FreeStyle293F cell line (Thermo Fisher). Conditioned media expressing human CD3eg linker was concentrated using a column packed with Q HP resins (GE healthcare) and then applied to FLAG-tag affinity chromatography. Fractions containing human CD3eg linker were collected and subsequently subjected to a Superdex 200 gel filtration column (GE healthcare) equilibrated with 1×D-PBS. Fractions containing human CD3eg linker were then pooled and stored at −80 degrees C.
as §1

T2 sequence (P07766+P09693 fused): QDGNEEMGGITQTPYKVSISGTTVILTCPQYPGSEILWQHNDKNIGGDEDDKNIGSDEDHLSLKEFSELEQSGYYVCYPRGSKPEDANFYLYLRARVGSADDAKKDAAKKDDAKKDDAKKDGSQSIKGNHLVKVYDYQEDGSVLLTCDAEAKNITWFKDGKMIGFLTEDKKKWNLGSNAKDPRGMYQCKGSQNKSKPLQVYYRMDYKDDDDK
T1 sequence (Q07011 with tags, fused parts or gaps): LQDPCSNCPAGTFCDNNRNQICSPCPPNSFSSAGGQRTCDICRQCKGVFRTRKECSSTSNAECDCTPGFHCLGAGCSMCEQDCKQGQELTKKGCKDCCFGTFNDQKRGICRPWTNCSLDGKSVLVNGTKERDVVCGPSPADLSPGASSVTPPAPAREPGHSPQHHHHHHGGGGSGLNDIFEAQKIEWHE

Molecule | CD137 Koff (recombinant human CD137) [s⁻¹] | CD137 Kon (recombinant human CD137) [M⁻¹ s⁻¹] | CD3 Koff [1] [s⁻¹] | CD3 Kon [1] [M⁻¹ s⁻¹] | Kd [1] [µM]
H1610L0581: affinity matured Dual-Fab variant, VH SEQ ID NO 94, VL SEQ ID NO 143 (antibody, V domains shown) VH: QVQLVESGGGLVQPGRSLRLSCAASGFVFSNVWMHWVRQAPGKGLEWVAQIKDKWNAYAAYYAPSVKGRFTISRDDSKNSIYLQMNSLKTEDTAVYYCHYIHYASASTLLPAEGIDAWGQGTTVTVSS VL: DIVMTQSPLSLPVTPGEPASISCQPSQEVVHMNRNTYLHWYQQKPGQAPRLLIYKVSNRFPGVPDRFSGSGSGTDFTLKISRVEAEDVGVYYCAQGTSHPFTFGQGTKLEIK | 0.0011 | 10700 | 0.00142 | 68000 | 
H1651L0581: affinity matured Dual-Fab variant, VH SEQ ID NO 98, VL SEQ ID NO 143 (antibody, V domains shown) VH: QVQLVESGGGLVQPGRSLRLSCAASGFVFSNVWFHWVRQAPGKGLEWVAQIKDKYNAYADYYAPSVEGRFTISRDDSKNSIYLQMNSLKTEDTAVYYCHYVHYASASTLLPAEGVDAWGQGTTVTVSS VL: DIVMTQSPLSLPVTPGEPASISCQPSQEVVHMNRNTYLHWYQQKPGQAPRLLIYKVSNRFPGVPDRFSGSGSGTDFTLKISRVEAEDVGVYYCAQGTSHPFTFGQGTKLEIK | 0.000603 | 14000 | 0.0371 | 71800 | 
H1652L0943: affinity matured Dual-Fab variant, VH SEQ ID NO 99, VL SEQ ID NO 146 (antibody, V domains shown) VH: QVQLVESGGGLVQPGRSLRLSCAASGFVFSNVWFHWVRQAPGKGLEWVAQIKDYYNAYADYYAPSVEGRFTISRDDSKNSIYLQMNSLKTEDTAVYYCHYVHYASASTLLPAEGVDAWGQGTTVTVSS VL: DIVMTQSPLSLPVTPGEPASISCQPSEEVVHMNRNTYLHWYQQKPGQAPRLLIYKVSNLFPGVPDRFSGSGSGTDFTLKISRVEAEDVGVYYCAQGTHHPFTFGQGTKLEIK | 0.00047 | 12900 | 0.0636 | 62300 | 1.02
H0868L0581: affinity matured Dual-Fab variant, VH SEQ ID NO 91, VL SEQ ID NO 143 (antibody, V domains shown) VH: QVQLVESGGGLVQPGRSLRLSCAASGFKFSNVWMHWVRQAPGKGLEWVAQIKDKYNAYAAYYAPSVKGRFTISRDDSKNSIYLQMNSLKTEDTAVYYCHYVHYASASTLLPAFGVDAWGQGTTVTVSS VL: DIVMTQSPLSLPVTPGEPASISCQPSQEVVHMNRNTYLHWYQQKPGQAPRLLIYKVSNRFPGVPDRFSGSGSGTDFTLKISRVEAEDVGVYYCAQGTSHPFTFGQGTKLEIK | 0.00136 | 12200 |  |  | 
H1571L0581: affinity matured Dual-Fab variant, VH SEQ ID NO 93, VL SEQ ID NO 143 (antibody, V domains shown) VH: QVQLVESGGGLVQPGRSLRLSCAASGFKFSNVWFHWVRQAPGKGLEWVAQIKDKYNAYATYYAPSVKGRFTISRDDSKNSIYLQMNSLKTEDTAVYYCHYVHYASASTLLPAFGVDAWGQGTTVTVSS VL: DIVMTQSPLSLPVTPGEPASISCQPSQEVVHMNRNTYLHWYQQKPGQAPRLLIYKVSNRFPGVPDRFSGSGSGTDFTLKISRVEAEDVGVYYCAQGTSHPFTFGQGTKLEIK | 0.00105 | 12100 |  |  | 
H1643L0581: affinity matured Dual-Fab variant, VH SEQ ID NO 95, VL SEQ ID NO 143 (antibody, V domains shown) VH: QVQLVESGGGLVQPGRSLRLSCAASGFKFSNVWFHWVRQAPGKGLEWVAQIKDYYNAYAAYYAPSVKGRFTISRDDSKNSIYLQMNSLKTEDTAVYYCHYVHYASASTLLPAEGVDAWGQGTTVTVSS VL: DIVMTQSPLSLPVTPGEPASISCQPSQEVVHMNRNTYLHWYQQKPGQAPRLLIYKVSNRFPGVPDRFSGSGSGTDFTLKISRVEAEDVGVYYCAQGTSHPFTFGQGTKLEIK | 0.000606 | 12300 | 0.0251 | 94600 | 
H1649L0943: affinity matured Dual-Fab variant, VH SEQ ID NO 97, VL SEQ ID NO 146 (antibody, V domains shown) VH: QVQLVESGGGLVQPGRSLRLSCAASGFVFSNVWFHWVRQAPGKGLEWVAQIKDKYNAYADYYAPSVKERFTISRDDSKNSIYLQMNSLKTEDTAVYYCHYVHYASASTLLPAEGVDAWGQGTTVTVSS VL: DIVMTQSPLSLPVTPGEPASISCQPSEEVVHMNRNTYLHWYQQKPGQAPRLLIYKVSNLFPGVPDRFSGSGSGTDFTLKISRVEAEDVGVYYCAQGTHHPFTFGQGTKLEIK | 0.000468 | 14300 | 0.0481 | 61000 | 
H1673L0581: affinity matured Dual-Fab variant, VH SEQ ID NO 100, VL SEQ ID NO 143 (antibody, V domains shown) VH: QVQLVESGGGLVQPGRSLRLSCAASGFVFSNVWFHWVRQAPGKGLEWVAQIKDKWNAYADYYAPSVKERFTISRDDSKNSIYLQMNSLKTEDTAVYYCHYIHYASASTLLPAEGIDAWGQGTTVTVSS VL: DIVMTQSPLSLPVTPGEPASISCQPSQEVVHMNRNTYLHWYQQKPGQAPRLLIYKVSNRFPGVPDRFSGSGSGTDFTLKISRVEAEDVGVYYCAQGTSHPFTFGQGTKLEIK | 0.00096 | 11900 | 0.00106 | 79600 | 
H1673L0943: affinity matured Dual-Fab variant, VH SEQ ID NO 100, VL SEQ ID NO 146 (antibody, V domains shown) VH: QVQLVESGGGLVQPGRSLRLSCAASGFVFSNVWFHWVRQAPGKGLEWVAQIKDKWNAYADYYAPSVKERFTISRDDSKNSIYLQMNSLKTEDTAVYYCHYIHYASASTLLPAEGIDAWGQGTTVTVSS VL: DIVMTQSPLSLPVTPGEPASISCQPSEEVVHMNRNTYLHWYQQKPGQAPRLLIYKVSNLFPGVPDRFSGSGSGTDFTLKISRVEAEDVGVYYCAQGTHHPFTFGQGTKLEIK | 0.000722 | 12200 | 0.00116 | 55000 | 
H1610L0939: affinity matured Dual-Fab variant, VH SEQ ID NO 94, VL SEQ ID NO 145 (antibody, V domains shown) VH: QVQLVESGGGLVQPGRSLRLSCAASGFVFSNVWMHWVRQAPGKGLEWVAQIKDKWNAYAAYYAPSVKGRFTISRDDSKNSIYLQMNSLKTEDTAVYYCHYIHYASASTLLPAEGIDAWGQGTTVTVSS VL: DIVMTQSPLSLPVTPGEPASISCQPSQEVVHMNRNTYLHWYQQKPGQAPRLLIYKVSNVFPGVPDRFSGSGSGTDFTLKISRVEAEDVGVYYCAQGTHHPFTFGQGTKLEIK | 0.000801 | 13000 | 0.00253 | 50000 | 
H1649L0581: affinity matured Dual-Fab variant, VH SEQ ID NO 97, VL SEQ ID NO 143 (antibody, V domains shown) VH: QVQLVESGGGLVQPGRSLRLSCAASGFVFSNVWFHWVRQAPGKGLEWVAQIKDKYNAYADYYAPSVKERFTISRDDSKNSIYLQMNSLKTEDTAVYYCHYVHYASASTLLPAEGVDAWGQGTTVTVSS VL: DIVMTQSPLSLPVTPGEPASISCQPSQEVVHMNRNTYLHWYQQKPGQAPRLLIYKVSNRFPGVPDRFSGSGSGTDFTLKISRVEAEDVGVYYCAQGTSHPFTFGQGTKLEIK | 0.000553 | 12900 | 0.0336 | 75000 | 
H1647L0581: affinity matured Dual-Fab variant, VH SEQ ID NO 96, VL SEQ ID NO 143 (antibody, V domains shown) VH: QVQLVESGGGLVQPGRSLRLSCAASGFKFSNTWFHWVRQAPGKGLEWVAQIKDYYNDYAAYYAPSVKGRFTISRDDSKNSIYLQMNSLKTEDTAVYYCHYVHYASASTLLPAEGVDAWGQGTTVTVSS VL: DIVMTQSPLSLPVTPGEPASISCQPSQEVVHMNRNTYLHWYQQKPGQAPRLLIYKVSNRFPGVPDRFSGSGSGTDFTLKISRVEAEDVGVYYCAQGTSHPFTFGQGTKLEIK | 0.000647 | 9980 |  |  | 
